Experimental data as given in publication PMC10716038, “Talin and kindlin use integrin tail allostery and direct binding to activate integrins” (Nature Structural & Molecular Biology, 2023).
Residue numbers refer to the chain shown, from its start. “And” between values parts separate entries of the source, which are not always exact repeats. Equal values may be shown once. No end group written: not given here.

Key:
Conditions in all cases: both partners purified
kindlin-2 (KIND2) [1] = molecular target: T1, kindlin-2 (KIND2) (UniProt Q8CIB5 1-680); assay: MST; apparent; KIND2 titrated to 488–β3-CT in the presence of 250-450 µM TLN1-F3; MST buffer
T1 construct: kindlin-2 (KIND2), recombinant; with the F1 loop and the PH domain (unlike ΔKIND2); source: E. coli Rosetta, purified (IMAC, SEC); not shown: His10-SUMO, N-terminal, cleaved
T1 sequence (looked up): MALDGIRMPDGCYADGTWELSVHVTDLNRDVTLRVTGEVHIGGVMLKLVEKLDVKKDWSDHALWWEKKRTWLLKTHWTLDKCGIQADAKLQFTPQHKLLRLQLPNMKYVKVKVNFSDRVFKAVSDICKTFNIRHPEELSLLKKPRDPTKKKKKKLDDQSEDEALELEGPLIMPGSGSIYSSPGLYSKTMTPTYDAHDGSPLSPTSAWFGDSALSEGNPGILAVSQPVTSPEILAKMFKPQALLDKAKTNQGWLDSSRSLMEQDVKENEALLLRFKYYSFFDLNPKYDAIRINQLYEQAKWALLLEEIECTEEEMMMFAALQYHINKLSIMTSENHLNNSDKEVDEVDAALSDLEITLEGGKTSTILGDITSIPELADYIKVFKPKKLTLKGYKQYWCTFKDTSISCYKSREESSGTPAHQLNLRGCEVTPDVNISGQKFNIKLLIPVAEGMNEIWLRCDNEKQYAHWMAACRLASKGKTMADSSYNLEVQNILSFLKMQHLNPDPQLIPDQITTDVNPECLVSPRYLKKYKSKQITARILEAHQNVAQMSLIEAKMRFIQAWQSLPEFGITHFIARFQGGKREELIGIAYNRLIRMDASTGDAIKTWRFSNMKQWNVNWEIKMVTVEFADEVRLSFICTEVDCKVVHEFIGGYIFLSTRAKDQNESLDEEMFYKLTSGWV

[2] = molecular target: T2, talin-1 head domain (THD1) (UniProt P26039 1-405); assay: MST; unlabelled protein titrated to 50-200 nM ATTO 488-labelled β-CT peptide, no third protein; 20 mM Tris pH 7.5, 200 mM NaCl, 1 mM TCEP, 0.05% Tween-20; Kd of individual titrations (in S0002 mean and sd, n = 2)
T2 construct: talin-1 (TLN1) head domain (THD), residues 1-405; murine TLN1 cDNA is named only for the cell lines; also called WT; source: E. coli (DE3) Rosetta 2, purified (IMAC, SEC); not shown: His10-SUMO, N-terminal, cleaved
T2 sequence (P26039 1-405): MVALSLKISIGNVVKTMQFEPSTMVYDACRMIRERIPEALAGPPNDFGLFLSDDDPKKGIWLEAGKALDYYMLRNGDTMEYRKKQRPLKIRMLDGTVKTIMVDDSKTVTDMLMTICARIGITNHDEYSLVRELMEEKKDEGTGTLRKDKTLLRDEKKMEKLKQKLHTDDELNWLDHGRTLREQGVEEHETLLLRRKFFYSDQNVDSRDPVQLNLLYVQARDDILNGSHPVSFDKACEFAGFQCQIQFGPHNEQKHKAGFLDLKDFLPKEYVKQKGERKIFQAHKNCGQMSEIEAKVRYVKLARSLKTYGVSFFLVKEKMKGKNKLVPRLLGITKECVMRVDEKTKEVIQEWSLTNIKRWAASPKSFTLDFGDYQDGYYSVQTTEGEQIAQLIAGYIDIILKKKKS

[3] = molecular target: T2, talin-1 head domain (THD1); assay: MST; apparent; THD1 titrated to 488–β3-CT in the presence of 30-40 µM KIND2-Y13A; MST buffer
[4] = molecular target: T3, talin-2 head domain (THD2) (UniProt Q71LX4 1-408); assay: MST; apparent; THD1 titrated to 488–β1-CT or THD2 to 488–β3-CT in the presence of 30 µM KIND2; MST buffer
T3 construct: talin-2 (TLN2) head domain (THD), residues 1-408; source: E. coli (DE3) Rosetta 2, purified (IMAC, SEC); not shown: His10-SUMO, N-terminal, cleaved
T3 sequence (Q71LX4 1-408): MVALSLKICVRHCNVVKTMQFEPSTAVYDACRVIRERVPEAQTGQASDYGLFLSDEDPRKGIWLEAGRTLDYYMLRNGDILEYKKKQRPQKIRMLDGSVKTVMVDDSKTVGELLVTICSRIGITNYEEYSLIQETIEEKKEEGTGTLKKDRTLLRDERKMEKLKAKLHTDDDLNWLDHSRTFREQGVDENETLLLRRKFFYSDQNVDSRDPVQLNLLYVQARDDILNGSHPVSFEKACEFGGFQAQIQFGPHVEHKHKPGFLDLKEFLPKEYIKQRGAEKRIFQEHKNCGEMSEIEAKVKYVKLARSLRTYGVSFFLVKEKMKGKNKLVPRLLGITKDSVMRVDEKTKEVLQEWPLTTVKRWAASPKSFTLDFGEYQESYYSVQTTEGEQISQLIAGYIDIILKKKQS

kindlin-2 (KIND2) [5] = molecular target: T1, kindlin-2 (KIND2); assay: MST; apparent; KIND2 titrated to 488–β3-CT in the presence of 100–400 µM THD2; MST buffer
kindlin-2 (KIND2) [6] = molecular target: T1, kindlin-2 (KIND2); assay: MST; apparent; KIND2 titrated to 488–β3-CT in the presence of 120 µM THD1-K402E; MST buffer
KIND2 Y13A = molecular target: T4, KIND2 Y13A (UniProt Q8CIB5 1-680, Y13A); assay: MST; apparent; KIND2-Y13A titrated to 488–β3-CT or KIND2 to 488–β1-spacer-CT in the presence of 300-400 µM THD1; MST buffer
T4 construct: kindlin-2 (KIND2), recombinant, Y13A; source: E. coli Rosetta, purified (IMAC, SEC); not shown: His10-SUMO, N-terminal, cleaved
T4 sequence (looked up): T1 sequence (looked up) with Y13A

[7] = molecular target: T2, talin-1 head domain (THD1); assay: MST; apparent; THD1 titrated to 488–β1-CT or 488–β3-CT in the presence of 300–400 µM β-CT-binding-impaired KIND2 Q614A,W615A (QW/AA); MST buffer
kindlin-2 (KIND2) [8] = molecular target: T1, kindlin-2 (KIND2); assay: MST; apparent; KIND2 titrated to 488–β3-CT in the presence of 250-450 µM TLN2-F3; MST buffer

B1: ATTO 488-labeled integrin β3 cytoplasmic tail (488–β3-CT) (peptide, UniProt O54890 741-787, looked up)
peptide: {ATTO 488}-KLLITIHDRKEFAKFEEERARAKWDTANNPLYKEATSTFTNITYRGT
notes: integrin β3 cytoplasmic tail (β3-CT); source: synthetic peptide (MPIB Core Facility)
kindlin-2 (KIND2) [1]
  Kd: 119 µM and 121 µM
[2]
  Kd: 127 µM and 115 µM and 93.9 µM and 85.5 µM
[3]
  Kd: 283 µM and 241 µM and 188 µM and 159 µM
[4]
  Kd: 39.1 µM and 36.2 µM and 54 µM
kindlin-2 (KIND2) [5]
  Kd: 20.9 µM and 29.1 µM and 29.5 µM
kindlin-2 (KIND2) [6]
  Kd: 16.4 µM and 15.8 µM and 16.7 µM
KIND2 Y13A
  Kd: 24 µM and 20.7 µM and 18.8 µM
[7]
  Kd: 183 µM and 137 µM and 88 µM
kindlin-2 (KIND2) [8]
  Kd: 55.8 µM and 30.2 µM and 54.2 µM
